Assay results published in paper PMC9482650, “Quantitative fragmentomics allow affinity mapping of interactomes” (Nature Communications, 2022).

T1: PTPN13_1, Q12923
T1 sequence (Q12923 1088-1188, limits assumed, looked up): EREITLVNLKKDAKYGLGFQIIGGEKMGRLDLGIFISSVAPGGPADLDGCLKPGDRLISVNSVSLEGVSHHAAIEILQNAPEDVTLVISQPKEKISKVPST

T2: DLG3_2, Q92796
T2 sequence (Q92796 221-321, limits assumed, looked up): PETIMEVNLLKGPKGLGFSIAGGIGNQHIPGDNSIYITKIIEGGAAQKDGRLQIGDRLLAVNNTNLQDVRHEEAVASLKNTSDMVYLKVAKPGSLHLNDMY

T3: MPP7, Q5T2T1
T3 sequence (Q5T2T1 134-230, limits assumed, looked up): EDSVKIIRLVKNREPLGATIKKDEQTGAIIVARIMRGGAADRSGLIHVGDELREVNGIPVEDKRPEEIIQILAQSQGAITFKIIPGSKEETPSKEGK

T4: DFNB31_2, Q9P202
T4 sequence (Q9P202 274-371, limits assumed, looked up): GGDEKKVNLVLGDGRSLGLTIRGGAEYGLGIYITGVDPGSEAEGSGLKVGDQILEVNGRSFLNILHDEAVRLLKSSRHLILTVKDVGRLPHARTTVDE

T5: TX1BP3, O14907
T5 sequence (O14907 10-122, limits assumed, looked up): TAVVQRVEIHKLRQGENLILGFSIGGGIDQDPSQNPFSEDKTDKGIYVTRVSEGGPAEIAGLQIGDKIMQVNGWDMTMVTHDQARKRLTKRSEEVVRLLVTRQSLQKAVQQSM

T6: DLG3_3, Q92796
T6 sequence (Q92796 374-475, limits assumed, looked up): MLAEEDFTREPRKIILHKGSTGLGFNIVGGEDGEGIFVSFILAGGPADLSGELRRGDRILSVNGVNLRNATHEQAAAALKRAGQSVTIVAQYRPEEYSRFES

T7: RADIL, Q96JH8
T7 sequence (Q96JH8 971-1071, limits assumed, looked up): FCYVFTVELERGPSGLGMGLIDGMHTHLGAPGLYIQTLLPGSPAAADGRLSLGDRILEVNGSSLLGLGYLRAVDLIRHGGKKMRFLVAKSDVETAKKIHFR

T8: PDZD2_2, O15018
T8 sequence (O15018 329-429, limits assumed, looked up): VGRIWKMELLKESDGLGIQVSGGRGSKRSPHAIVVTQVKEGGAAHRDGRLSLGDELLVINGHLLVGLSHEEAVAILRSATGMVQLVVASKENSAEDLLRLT

T9: HTRA4, P83105
T9 sequence (P83105 378-476, limits assumed, looked up): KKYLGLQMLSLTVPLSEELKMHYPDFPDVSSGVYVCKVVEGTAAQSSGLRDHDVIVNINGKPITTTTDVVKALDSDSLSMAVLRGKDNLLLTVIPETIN

T10: DFNB31_3, Q9P202
T10 sequence (Q9P202 811-907, limits assumed, looked up): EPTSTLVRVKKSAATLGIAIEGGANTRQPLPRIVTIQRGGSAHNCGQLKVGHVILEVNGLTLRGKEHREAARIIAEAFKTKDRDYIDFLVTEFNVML

T11: LIN7C, Q9NUP9
T11 sequence (Q9NUP9 88-185, limits assumed, looked up): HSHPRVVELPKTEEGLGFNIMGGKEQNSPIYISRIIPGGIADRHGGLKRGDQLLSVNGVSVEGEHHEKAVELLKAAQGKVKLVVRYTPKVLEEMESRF


Tests used:
Assay in all cases: holdup assay
Set-up in all cases: key: below the threshold = too weak to quantify, mostly under pKd 3.1 to 4
Conditions in all cases: plain residues with an end cap or a label only (N-terminal biotin on a linker: ado-ado)
Inadl_5, Q8NI35 = biological target: Inadl_5, Q8NI35
MAGI2_2, Q86UL8 = biological target: MAGI2_2, Q86UL8
LAP2, Q96RT1 = biological target: LAP2, Q96RT1
GRIP2_4, Q9C0E4 = biological target: GRIP2_4, Q9C0E4
HTRA2, O43464 = biological target: HTRA2, O43464
PTPN13_1, Q12923 = biological target: T1, PTPN13_1, Q12923
DLG3_2, Q92796 = biological target: T2, DLG3_2, Q92796
MPP7, Q5T2T1 = biological target: T3, MPP7, Q5T2T1
DLG4_3, P78352 = biological target: DLG4_3, P78352
MAGI2_5, Q86UL8 = biological target: MAGI2_5, Q86UL8
IL16_3, Q14005 = biological target: IL16_3, Q14005
DFNB31_2, Q9P202 = biological target: T4, DFNB31_2, Q9P202
FRMPD2_3, Q68DX3 = biological target: FRMPD2_3, Q68DX3
Inadl_1, Q8NI35 = biological target: Inadl_1, Q8NI35
Inadl_6, Q8NI35 = biological target: Inadl_6, Q8NI35
PICK1, Q9NRD5 = biological target: PICK1, Q9NRD5
NOS1, P29475 = biological target: NOS1, P29475
TX1BP3, O14907 = biological target: T5, TX1BP3, O14907
DLG3_3, Q92796 = biological target: T6, DLG3_3, Q92796
SCRIB_3, Q14160 = biological target: SCRIB_3, Q14160
Inadl_4, Q8NI35 = biological target: Inadl_4, Q8NI35
RADIL, Q96JH8 = biological target: T7, RADIL, Q96JH8
PDZD2_2, O15018 = biological target: T8, PDZD2_2, O15018
HTRA4, P83105 = biological target: T9, HTRA4, P83105
DFNB31_3, Q9P202 = biological target: T10, DFNB31_3, Q9P202
MAST1, Q9Y2H9 = biological target: MAST1, Q9Y2H9
LIN7C, Q9NUP9 = biological target: T11, LIN7C, Q9NUP9

Chain of MAGI2_2, Q86UL8 (Q86UL8 410-522): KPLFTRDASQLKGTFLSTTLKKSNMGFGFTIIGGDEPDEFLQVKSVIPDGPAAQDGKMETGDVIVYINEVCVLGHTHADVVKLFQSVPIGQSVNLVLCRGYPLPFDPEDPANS
Chain of Inadl_6, Q8NI35 (Q8NI35 1058-1167): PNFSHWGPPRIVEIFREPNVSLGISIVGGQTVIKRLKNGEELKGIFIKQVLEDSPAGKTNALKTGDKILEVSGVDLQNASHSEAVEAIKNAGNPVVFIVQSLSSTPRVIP
Chain of DLG4_3, P78352 (P78352 306-403): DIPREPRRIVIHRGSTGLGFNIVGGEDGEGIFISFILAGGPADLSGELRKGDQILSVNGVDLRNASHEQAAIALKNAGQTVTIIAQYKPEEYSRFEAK
Chain of NOS1, P29475 (P29475 9-101): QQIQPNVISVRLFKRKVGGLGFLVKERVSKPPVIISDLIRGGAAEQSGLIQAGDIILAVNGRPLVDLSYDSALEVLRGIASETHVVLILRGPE
Chain of MAGI2_5, Q86UL8 (Q86UL8 915-1017): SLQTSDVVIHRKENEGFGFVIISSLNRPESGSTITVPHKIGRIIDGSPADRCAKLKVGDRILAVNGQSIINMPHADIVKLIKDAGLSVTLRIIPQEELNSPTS
Chain of Inadl_5, Q8NI35 (Q8NI35 673-780): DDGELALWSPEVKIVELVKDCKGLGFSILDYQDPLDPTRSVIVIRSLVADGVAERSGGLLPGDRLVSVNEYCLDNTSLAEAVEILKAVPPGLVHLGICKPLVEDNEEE
Chain of Inadl_4, Q8NI35 (Q8NI35 547-651): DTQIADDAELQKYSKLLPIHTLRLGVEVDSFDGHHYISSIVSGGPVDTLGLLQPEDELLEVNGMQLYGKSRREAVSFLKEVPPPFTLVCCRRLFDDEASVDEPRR
Chain of LAP2, Q96RT1 (Q96RT1 other isoform, or with tags, fused parts or gaps): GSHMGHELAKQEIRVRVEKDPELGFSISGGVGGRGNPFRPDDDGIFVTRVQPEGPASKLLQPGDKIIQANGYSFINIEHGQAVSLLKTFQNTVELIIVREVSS
Chain of HTRA2, O43464 (O43464 355-458): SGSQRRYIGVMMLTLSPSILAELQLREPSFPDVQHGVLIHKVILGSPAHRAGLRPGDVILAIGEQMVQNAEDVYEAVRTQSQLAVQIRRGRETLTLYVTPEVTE
Chain of Inadl_1, Q8NI35 (Q8NI35 113-229): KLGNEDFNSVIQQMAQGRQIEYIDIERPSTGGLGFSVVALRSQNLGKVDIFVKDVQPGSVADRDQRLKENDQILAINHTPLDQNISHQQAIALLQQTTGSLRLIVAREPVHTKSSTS
Chain of FRMPD2_3, Q68DX3 (Q68DX3 1073-1166): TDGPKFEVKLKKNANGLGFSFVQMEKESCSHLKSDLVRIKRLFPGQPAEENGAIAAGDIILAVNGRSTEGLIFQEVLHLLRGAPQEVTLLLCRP
Chain of PICK1, Q9NRD5 (Q9NRD5 17-115): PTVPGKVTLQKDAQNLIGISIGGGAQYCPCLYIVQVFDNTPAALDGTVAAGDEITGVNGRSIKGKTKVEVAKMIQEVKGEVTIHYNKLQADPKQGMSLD
Chain of GRIP2_4, Q9C0E4 (Q9C0E4 446-548): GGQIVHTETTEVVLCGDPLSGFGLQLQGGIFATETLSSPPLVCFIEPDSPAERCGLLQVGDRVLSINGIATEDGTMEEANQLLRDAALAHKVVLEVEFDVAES
Chain of MAST1, Q9Y2H9 (Q9Y2H9 962-1065): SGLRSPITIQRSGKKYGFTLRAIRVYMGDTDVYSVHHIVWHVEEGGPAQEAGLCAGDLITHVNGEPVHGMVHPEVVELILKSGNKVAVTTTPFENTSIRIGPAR
Chain of IL16_3, Q14005 (Q14005 1107-1207): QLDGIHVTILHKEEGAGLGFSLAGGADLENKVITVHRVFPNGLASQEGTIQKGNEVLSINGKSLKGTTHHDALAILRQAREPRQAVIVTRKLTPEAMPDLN
Chain of SCRIB_3, Q14160 (Q14160 999-1103): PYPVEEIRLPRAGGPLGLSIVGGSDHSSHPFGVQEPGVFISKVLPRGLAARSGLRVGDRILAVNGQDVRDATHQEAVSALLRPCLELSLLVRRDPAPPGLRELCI

Binder	pKd (Inadl_5, Q8NI35)	pKd (MAGI2_2, Q86UL8)	pKd (LAP2, Q96RT1)	pKd (GRIP2_4, Q9C0E4)	pKd (HTRA2, O43464)	pKd (PTPN13_1, Q12923)	pKd (DLG3_2, Q92796)	pKd (MPP7, Q5T2T1)	pKd (DLG4_3, P78352)	pKd (MAGI2_5, Q86UL8)	pKd (DFNB31_2, Q9P202)	pKd (FRMPD2_3, Q68DX3)	pKd (Inadl_1, Q8NI35)	pKd (Inadl_6, Q8NI35)	pKd (PICK1, Q9NRD5)	pKd (NOS1, P29475)	pKd (TX1BP3, O14907)	pKd (DLG3_3, Q92796)	pKd (SCRIB_3, Q14160)	pKd (Inadl_4, Q8NI35)	other results
KSTTRSSSSC [NDE1, Q9NXR1;Q9NXR1-2]	below the threshold	below the threshold	below the threshold	below the threshold	below the threshold	below the threshold	4.07	below the threshold	below the threshold	below the threshold	below the threshold	below the threshold	below the threshold	below the threshold	below the threshold	below the threshold	3.93	below the threshold	below the threshold	below the threshold	pKd (IL16_3, Q14005): below the threshold; pKd (RADIL, Q96JH8): below the threshold; pKd (PDZD2_2, O15018): 4.09; pKd (HTRA4, P83105): below the threshold
EYRKDNKVAA [LSM14A, Q8ND56;Q8ND56-2]	below the threshold	below the threshold	below the threshold	below the threshold	below the threshold	below the threshold	4.23	below the threshold	below the threshold	below the threshold	below the threshold	below the threshold	below the threshold	below the threshold	below the threshold	below the threshold	below the threshold	below the threshold	below the threshold	below the threshold	pKd (DFNB31_3, Q9P202): below the threshold; pKd (MAST1, Q9Y2H9): below the threshold; pKd (LIN7C, Q9NUP9): below the threshold; pKd (RADIL, Q96JH8): below the threshold; pKd (PDZD2_2, O15018): below the threshold; pKd (HTRA4, P83105): below the threshold
GDHLDRRVVL [VAC14, Q08AM6]	3.48	below the threshold	3.93	below the threshold	3.48	3.7	below the threshold	below the threshold	below the threshold	below the threshold	3.51	below the threshold	below the threshold	below the threshold	below the threshold	below the threshold	3.71	below the threshold	below the threshold	below the threshold	pKd (DFNB31_3, Q9P202): 3.82; pKd (MAST1, Q9Y2H9): 4.17; pKd (LIN7C, Q9NUP9): 4.04; pKd (IL16_3, Q14005): 3.58; pKd (RADIL, Q96JH8): 3.52; pKd (PDZD2_2, O15018): below the threshold; pKd (HTRA4, P83105): 3.92
LRYARPADAL [PPP1R3G, B7ZBB8]	below the threshold	below the threshold	below the threshold	below the threshold	below the threshold	below the threshold	below the threshold	below the threshold	below the threshold	below the threshold	below the threshold	below the threshold	below the threshold	below the threshold	below the threshold	4.36	below the threshold	below the threshold	below the threshold	below the threshold	pKd (DFNB31_3, Q9P202): below the threshold; pKd (MAST1, Q9Y2H9): 3.73; pKd (LIN7C, Q9NUP9): below the threshold; pKd (IL16_3, Q14005): below the threshold; pKd (RADIL, Q96JH8): below the threshold; pKd (PDZD2_2, O15018): below the threshold; pKd (HTRA4, P83105): 3.92
